Results taken from US12180485B2, “Repressible control of gene expression” (TRUSTEES OF BOSTON UNIVERSITY, priority 2020, dated 2024).
Entries after “also recorded” stand apart in the source; their conditions may differ.

B1: 384/385: RfxCas13d split pair at 384/385 (protein)
chain 1: IEKKKSFAKGMGVKSTLVSGSKVYMTTFAEGSDARLEKIVEGDSIRSVNEGEAFSAEMADKNAGYKIGNAKFSHPKGYAVVANNPLYTGPVQQDMLGLKETLEKRYFGESADGNDNICIQVIHNILDIEKILAEYITNAAYAVNNISGLDKDIIGFGKFSTVYTYDEFKDPEHHRAAFNNNDKLINAIKAQYDEFDNFLDNPRLGYFGQAFFSKEGRNYIINYGNECYDILALLSGLRHWVVHNNEEESRISRTWLYNLDKNLDNEYISTLNYLYDRITNELTNSFSKNSAANVNYIAETLGINPAEFAEQYFRFSIMKEQKNLGFNITKLREVMLDRKDMSEIRKNHKVFDSIRTKVYTMMDFVIYRYYIEEDAKVAAANKSL
chain 2: PDNEKSLSEKDIFVINLRGSFNDDQKDALYYDEANRIWRKLENIMHNIKEFRGNKTREYKKKDAPRLPRILPAGRDVSAFSKLMYALTMFLDGKEINDLLTTLINKFDNIQSFLKVMPLIGVNAKFVEEYAFFKDSAKIADELRLIKSFARMGEPIADARRAMYIDAIRILGTNLSYDELKALADTFSLDENGNKLKKGKHGMRNFIINNVISNKRFHYLIRYGDPAHLHEIAKNEAVVKFVLGRIADIQKKQGQNGKNQIDRYYETCIGKDKGKSVSEKVDALTKIITGMNYDQFDKKRSVIEDTGRENAEREKFKKIISLYLTVIYHILKNIVNINARYVIGFHCVERDAQLYKEKGYDINLKKLEEKGFSSVTKLCAGIDETAPDKRKDVEKEMAERAKESIDSLESANPKLYANYIKYSDEKKAEEFTRQINREKAKTALNAYLRNTKWNVIIREDLLRIDNKTCTLFRNKAVHLEVARYVHAYINDIAEVNSYFQLYHYIMQRIIMNERYEKSSGKVSEYFDAVNDEKKYNDRLLKLLCVPFGYCIPRFKNLSIEALFDRNEAAKFDKEKKKVSGNS
B2: 655/656: RfxCas13d split pair at 655/656, plain or fused to CID domains (protein)
chain 1: IEKKKSFAKGMGVKSTLVSGSKVYMTTFAEGSDARLEKIVEGDSIRSVNEGEAFSAEMADKNAGYKIGNAKFSHPKGYAVVANNPLYTGPVQQDMLGLKETLEKRYFGESADGNDNICIQVIHNILDIEKILAEYITNAAYAVNNISGLDKDIIGFGKFSTVYTYDEFKDPEHHRAAFNNNDKLINAIKAQYDEFDNFLDNPRLGYFGQAFFSKEGRNYIINYGNECYDILALLSGLRHWVVHNNEEESRISRTWLYNLDKNLDNEYISTLNYLYDRITNELTNSFSKNSAANVNYIAETLGINPAEFAEQYFRFSIMKEQKNLGFNITKLREVMLDRKDMSEIRKNHKVFDSIRTKVYTMMDFVIYRYYIEEDAKVAAANKSLPDNEKSLSEKDIFVINLRGSFNDDQKDALYYDEANRIWRKLENIMHNIKEFRGNKTREYKKKDAPRLPRILPAGRDVSAFSKLMYALTMFLDGKEINDLLTTLINKFDNIQSFLKVMPLIGVNAKFVEEYAFFKDSAKIADELRLIKSFARMGEPIADARRAMYIDAIRILGTNLSYDELKALADTFSLDENGNKLKKGKHGMRNFIINNVISNKRFHYLIRYGDPAHLHEIAKNEAVVKFVLGRIADIQKKQGQNGKNQIDRYYETCIGK
chain 2: DKGKSVSEKVDALTKIITGMNYDQFDKKRSVIEDTGRENAEREKFKKIISLYLTVIYHILKNIVNINARYVIGFHCVERDAQLYKEKGYDINLKKLEEKGFSSVTKLCAGIDETAPDKRKDVEKEMAERAKESIDSLESANPKLYANYIKYSDEKKAEEFTRQINREKAKTALNAYLRNTKWNVIIREDLLRIDNKTCTLFRNKAVHLEVARYVHAYINDIAEVNSYFQLYHYIMQRIIMNERYEKSSGKVSEYFDAVNDEKKYNDRLLKLLCVPFGYCIPRFKNLSIEALFDRNEAAKFDKEKKKVSGNS
B3: 177/178: RfxCas13d split pair at 177/178 (protein)
chain 1: IEKKKSFAKGMGVKSTLVSGSKVYMTTFAEGSDARLEKIVEGDSIRSVNEGEAFSAEMADKNAGYKIGNAKFSHPKGYAVVANNPLYTGPVQQDMLGLKETLEKRYFGESADGNDNICIQVIHNILDIEKILAEYITNAAYAVNNISGLDKDIIGFGKFSTVYTYDEFKDPEHHRAA
chain 2: FNNNDKLINAIKAQYDEFDNFLDNPRLGYFGQAFFSKEGRNYIINYGNECYDILALLSGLRHWVVHNNEEESRISRTWLYNLDKNLDNEYISTLNYLYDRITNELTNSFSKNSAANVNYIAETLGINPAEFAEQYFRFSIMKEQKNLGFNITKLREVMLDRKDMSEIRKNHKVFDSIRTKVYTMMDFVIYRYYIEEDAKVAAANKSLPDNEKSLSEKDIFVINLRGSFNDDQKDALYYDEANRIWRKLENIMHNIKEFRGNKTREYKKKDAPRLPRILPAGRDVSAFSKLMYALTMFLDGKEINDLLTTLINKFDNIQSFLKVMPLIGVNAKFVEEYAFFKDSAKIADELRLIKSFARMGEPIADARRAMYIDAIRILGTNLSYDELKALADTFSLDENGNKLKKGKHGMRNFIINNVISNKRFHYLIRYGDPAHLHEIAKNEAVVKFVLGRIADIQKKQGQNGKNQIDRYYETCIGKDKGKSVSEKVDALTKIITGMNYDQFDKKRSVIEDTGRENAEREKFKKIISLYLTVIYHILKNIVNINARYVIGFHCVERDAQLYKEKGYDINLKKLEEKGFSSVTKLCAGIDETAPDKRKDVEKEMAERAKESIDSLESANPKLYANYIKYSDEKKAEEFTRQINREKAKTALNAYLRNTKWNVIIREDLLRIDNKTCTLFRNKAVHLEVARYVHAYINDIAEVNSYFQLYHYIMQRIIMNERYEKSSGKVSEYFDAVNDEKKYNDRLLKLLCVPFGYCIPRFKNLSIEALFDRNEAAKFDKEKKKVSGNS
B4: 559/560: RfxCas13d split between residues 559/560; N and C fragments plain or fused to CID domains (protein)
chain 1: IEKKKSFAKGMGVKSTLVSGSKVYMTTFAEGSDARLEKIVEGDSIRSVNEGEAFSAEMADKNAGYKIGNAKFSHPKGYAVVANNPLYTGPVQQDMLGLKETLEKRYFGESADGNDNICIQVIHNILDIEKILAEYITNAAYAVNNISGLDKDIIGFGKFSTVYTYDEFKDPEHHRAAFNNNDKLINAIKAQYDEFDNFLDNPRLGYFGQAFFSKEGRNYIINYGNECYDILALLSGLRHWVVHNNEEESRISRTWLYNLDKNLDNEYISTLNYLYDRITNELTNSFSKNSAANVNYIAETLGINPAEFAEQYFRFSIMKEQKNLGFNITKLREVMLDRKDMSEIRKNHKVFDSIRTKVYTMMDFVIYRYYIEEDAKVAAANKSLPDNEKSLSEKDIFVINLRGSFNDDQKDALYYDEANRIWRKLENIMHNIKEFRGNKTREYKKKDAPRLPRILPAGRDVSAFSKLMYALTMFLDGKEINDLLTTLINKFDNIQSFLKVMPLIGVNAKFVEEYAFFKDSAKIADELRLIKSFARMGEPIADARRAMYIDAIRILGTNL
chain 2: SYDELKALADTFSLDENGNKLKKGKHGMRNFIINNVISNKRFHYLIRYGDPAHLHEIAKNEAVVKFVLGRIADIQKKQGQNGKNQIDRYYETCIGKDKGKSVSEKVDALTKIITGMNYDQFDKKRSVIEDTGRENAEREKFKKIISLYLTVIYHILKNIVNINARYVIGFHCVERDAQLYKEKGYDINLKKLEEKGFSSVTKLCAGIDETAPDKRKDVEKEMAERAKESIDSLESANPKLYANYIKYSDEKKAEEFTRQINREKAKTALNAYLRNTKWNVIIREDLLRIDNKTCTLFRNKAVHLEVARYVHAYINDIAEVNSYFQLYHYIMQRIIMNERYEKSSGKVSEYFDAVNDEKKYNDRLLKLLCVPFGYCIPRFKNLSIEALFDRNEAAKFDKEKKKVSGNS

Tested on: mCherry
Test: mCherry knockdown by inducible split RfxCas13d (ON switch) in transfected HEK 293 FT cells, flow cytometry
Type: cell-based
Conditions: for knockdown with assistance of gRNA: mCherry; for performance after NES/NLS compartmentalization: GIB induced split pairs, NES on one moiety, NLS on the other; for knockdown across the various CID systems: split pairs coupled with CID domains, with inducer

Molecule	knockdown with assistance of gRNA	performance after NES/NLS compartmentalization	knockdown across the various CID systems	induced knockdown (Danoprevir-inducible, 2 NESs on N terminal moiety and 2 NLSs on C terminal moiety)	performance of reversed CID orientation versus original orientation (GIB: N ss-GAI/GID-ss C, ABA: N ss-PYL/ABI-ss C)	target knockdown efficiency (split pair)
B1	relatively efficient knockdown	–	–	–	–	–
B2	–	high inducibility with minimal leakiness	efficient knockdown; also recorded: consistently strong drug-induced knockdown	–	–	–
B3	relatively efficient knockdown	–	–	–	–	–
B4	–	high inducibility with minimal leakiness	efficient knockdown; also recorded: consistently strong drug-induced knockdown	over 60%	stronger inducibility and weaker leakiness	more than 80%
